Measurements published in patent publication US20020015966A1, “Effector-specific protein assembly and uses thereof” (priority 2000, published 2002).

Columns and labels:
ER-α = experiment: mammalian two-hybrid assay of ER-α helix 1-LBD interaction; assay type: cell-based; conditions: HepG2 cells, G5E1B-Luc reporter
Source text: Shown are mammalian two-hybrid assays of Gal fusions containing helix 1 of ER-α with VP16 fusions of the ER LBD containing or lacking helix 1. HepG2 cells were cotransfected with G5E1B-Luc reporter, the appropriate combination of the expression vectors, and a ligand or vehicle. “E2” denotes estradiol; “4HT” denotes 4-hydroxy tamoxifen; and “ICI” denotes ICI-172,780.
HepG2 cells were maintained in Dulbecco's modified Eagle medium supplemented with 10% fetal calf serum. For transfection the cells were plated the day before into 24-well dishes at density 10^5 cells/well in DMEM supplemented with 10% charcoal-stripped serum. Transfections were performed by the calcium phosphate co-precipitation method. […] The amount of DNA was adjusted to 500 ng total per well with pBluescript vector.
The cells were washed with PBS the next morning and fresh media containing the appropriate ligands was added. The cells were harvested 24 hours later and assayed for luciferase (Molecular Probes) and β-Galactosidase activity (Tropix) on an MLX luminometer. All experiments were performed at least twice in duplicate.

[1] = biological target: T1, GST-TR hinge fusion / TR LBD (Homo sapiens, UniProt P10828); experiment: GST pulldown assay of GST-TR204-260 with in vitro translated TR236-461; assay type: binding; conditions: peptide 10 and 100 μM
T1 construct: GST pulldown assay of GST-TR204-260 with in vitro translated TR236-461; made in house; host or cells: The GST fusion was made in E. coli BL21; The LBD fragment was translated in vitro
T1 sequence (P10828 236-461): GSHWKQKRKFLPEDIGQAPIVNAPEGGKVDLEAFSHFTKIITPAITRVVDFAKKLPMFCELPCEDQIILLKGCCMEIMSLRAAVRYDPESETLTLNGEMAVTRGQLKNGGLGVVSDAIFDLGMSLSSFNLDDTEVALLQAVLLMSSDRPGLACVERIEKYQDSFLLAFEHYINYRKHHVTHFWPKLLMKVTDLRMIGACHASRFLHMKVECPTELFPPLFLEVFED
T1 sequence (P10828 204-260 partner limits assumed): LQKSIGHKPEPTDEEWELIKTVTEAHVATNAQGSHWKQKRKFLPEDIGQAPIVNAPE
Source text: FIGS. 5A and 5B illustrate that N-CoR enhances the hinge-LBD interaction in the absence of ligand. In FIG. 5A, HepG2 cells were cotransfected with Gal4-hinge and VP16-LBD fusions of TR (left panel), RAR (middle panel), or RXR (right panel) in the presence or absence of Gal-RIP13ΔN4 construct and treated with the corresponding ligands or vehicle alone. […] Wt and mutant peptides of N-CoR IDI (top and bottom panels, respectively) were included where indicated at concentrations of 10 (+) and 100 (++) μM.
The appropriate GST fusion constructs were induced with […] and coupled to glutathione beads (Sepharose, Pharmacia). Interactions were performed overnight at 4° C. in buffer containing 20 mM Hepes pH 7.6, 100 mM NaCl, 20% glycerol, 2 mg/ml BSA, 1 mM DTT, and various protease inhibitors. The beads were subsequently washed twice with the interaction buffer containing 0.05% Triton X-100 and once with 50 mM Tris-HCl pH 8. Ligands or peptides were included in the washes where appropriate. The bound proteins were eluted with 15 mM glutathione (Sigma) for 15 minutes at 37° C. and analyzed by SDS-PAGE and fluorography (Amplify, Amersham). The sequence of the N-CoR RID peptide was […].

TR 204-461 = biological target: T2, TR 204-461 (Homo sapiens, UniProt P10828); experiment: protease digestion assay (trypsin) of TR LBD; assay type: biochemical; conditions: in the absence of ligand; 1 mM peptide, trypsin 7 minutes at room temperature
T2 construct: Flag (N); made in house; host or cells: in vitro translation
T2 sequence (P10828 204-461): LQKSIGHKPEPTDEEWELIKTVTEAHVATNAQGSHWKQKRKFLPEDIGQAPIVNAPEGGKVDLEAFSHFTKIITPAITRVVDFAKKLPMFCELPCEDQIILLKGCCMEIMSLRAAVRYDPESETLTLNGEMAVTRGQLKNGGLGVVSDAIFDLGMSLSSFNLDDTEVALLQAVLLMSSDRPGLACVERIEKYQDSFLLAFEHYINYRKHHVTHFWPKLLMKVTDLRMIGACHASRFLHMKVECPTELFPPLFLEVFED
Protocol: The mixture was digested with trypsin for 7 minutes at room temperature and analyzed by SDS-PAGE.
Subsequently, wild-type or mutated N-CoR peptides were added to final concentrations of 1 mM, and the reaction mixtures was further incubated for 30 minutes on ice. BSA was added to the reactions with no peptides to supplement for equal protein concentration in all the reaction mixtures. Finally, […] of trypsin was added to the indicated tubes, and the protein digestion was performed at room temperature for 7 minutes. The reactions were stopped with the addition of SDS-sample buffer and boiling. The samples were run on a 15% SDS-gel that was then dried and exposed to film for 1 hour.

Substance | hinge-LBD interaction of ER-α (ER-α) | interaction between a GST-TR hinge fusion and the TR LBD ([1]; in the absence of ligand) | interaction between a GST-TR hinge fusion and the TR LBD ([1]; in the presence of ligand) | new protease resistant species with a lower molecular weight (TR 204-461) | stabilization of TR LBD fragment against trypsin digestion (TR 204-461)
4-hydroxy tamoxifen | stronger effect | – | – | – | –
ASNLGEDIIKALMGSFDD [wild type NCoR RID I peptide] | – | strongly stimulated | did not affect | presence of a new protease resistant species | some apparent stabilization
